# Laboratory results: PMC11892807
# Assays:
# [1] = molecular target: CA(A14C/E45C/W184A/M185A) (HIV-1); experiment: mass photometry; no ligand added; 2 uL of sample into 18 uL buffer, 60 s at 331 Hz; unliganded WT CA and pre-formed cross-linked pentamers and hexamers as controls
# [2] = molecular target: CA(A14C/E45C/W184A/M185A) (HIV-1); experiment: cross-linking; as the DMSO reaction, but 2 uM LEN pre-incubated with monomeric CA (1 uM) before concentration to 125 uM and sequential dialysis out of beta-mercaptoethanol; products on SDS-PAGE
# [3] = molecular target: CA(A14C/E45C/W184A/M185A) (HIV-1); experiment: cross-linking; disulfide cross-linking of monomeric CA with DMSO, by sequential dialysis out of beta-mercaptoethanol at 4 C (final 20 mM Tris-HCl pH 8, 40 mM NaCl, no reducing agent); products on SDS-PAGE; legend: 1 uM CA, methods: diluted to 1 uM, then concentrated to 125 uM
# [4] = molecular target: CA(N21C/A22C/W184A/M185A) (HIV-1); experiment: mass photometry; no ligand added; 2 uL of sample into 18 uL buffer, 60 s at 331 Hz; unliganded WT CA and pre-formed cross-linked pentamers and hexamers as controls
# [5] = molecular target: CA(N21C/A22C/W184A/M185A) (HIV-1); experiment: cross-linking; disulfide cross-linking of monomeric CA with DMSO, by sequential dialysis out of beta-mercaptoethanol at 4 C (final 20 mM Tris-HCl pH 8, 40 mM NaCl, no reducing agent); products on SDS-PAGE; legend: 1 uM CA, methods: diluted to 1 uM, then concentrated to 125 uM
Substance,stoichiometry N [1],stoichiometry N [2],stoichiometry N [3],stoichiometry N [4],stoichiometry N [5]
CA(A14C/E45C/W184A/M185A) (natural protein),6,6,6,–,–
CA(N21C/A22C/W184A/M185A) (natural protein),–,–,–,5,5
